B1: anti-mutCALR antibody clone 75 (antibody, human IgG1, lambda, N297A, V domains shown)
VH: EVQLVQSGAEVKKPGASVKVSCKVSGYTLTELSMQWVRQAPGKGLEWMGGFDPDDGETMYAEKFQGRLTVTEDTSTDTVYMELRSLTSEDTALYFCATSPGYDFFDYWGQGTLVTVSS
VL: SYVLTQPPSVSVAPGKTARITCGGNNIGSKSVHWYQQKPGQAPVLVVYDDSDRPSGIPERFSGSNSGNTATLTISRVEAGDEADYYCQVWDSSNDLLIFGGGTKLTVLG
notes: human IgG1 N297A variant of clone 6
B2: anti-mutCALR antibody clone 79 (antibody, human IgG1, lambda, N297A, V domains shown)
VH: EVQLVQSGAEVKKPGASVKVSCKVSGYTLTELSMQWVRQAPGKGLEWMGGFDPDDAETMYAEKFQGRLTVTEDTSTDTVYMELRSLTSEDTALYFCATSPGYDFFDYWGQGTLVTVSS
VL: SYVLTQPPSVSVAPGKTARITCGGNNIGSKSVHWYQQKPGQAPVLVVYDDSDRPSGIPERFSGSNSGNTATLTISRVEAGDEADYYCQVWDSSNDLLIFGGGTKLTVLG
notes: as for B1
B3: anti-mutCALR antibody clone 82 (antibody, human IgG1, lambda, N297A, V domains shown)
VH: EVQLVQSGAEVKKPGASVKVSCKVSGYTLTELSMQWVRQAPGKGLEWMGGFDPDSGETMYAEKFQGRLTVTEDTSTDTVYMELSSLRSEDTAVYFCATSPGYDFFDYWGQGTLVTVSS
VL: SYVLTQPPSVSVAPGKTARITCGGNNIGSKSVHWYQQKPGQAPVLVVYDDSDRPSGIPERFSGSNSGNTATLTISRVEAGDEADYYCQVWDSSNDLLIFGGGTKLTVLG
notes: as for B1
B4: anti-mutCALR antibody clone 81 (antibody, human IgG1, lambda, N297A, V domains shown)
VH: EVQLVQSGAEVKKPGASVKVSCKVSGYTLTELSMQWVRQAPGKGLEWMGGFDPDAGETMYAEKFQGRLTVTEDTSTDTVYMELSSLRSEDTAVYFCATSPGYDFFDYWGQGTLVTVSS
VL: SYVLTQPPSVSVAPGKTARITCGGNNIGSKSVHWYQQKPGQAPVLVVYDDSDRPSGIPERFSGSNSGNTATLTISRVEAGDEADYYCQVWDSSNDLLIFGGGTKLTVLG
notes: as for B1
B5: anti-mutCALR antibody clone 76 (antibody, human IgG1, lambda, N297A, V domains shown)
VH: EVQLVQSGAEVKKPGASVKVSCKVSGYTLTELSMQWVRQAPGKGLEWMGGFDPDAGETMYAEKFQGRLTVTEDTSTDTVYMELRSLTSEDTALYFCATSPGYDFFDYWGQGTLVTVSS
VL: SYVLTQPPSVSVAPGKTARITCGGNNIGSKSVHWYQQKPGQAPVLVVYDDSDRPSGIPERFSGSNSGNTATLTISRVEAGDEADYYCQVWDSSNDLLIFGGGTKLTVLG
notes: as for B1
B6: anti-mutCALR antibody clone 80 (antibody, human IgG1, lambda, N297A, V domains shown)
VH: EVQLVQSGAEVKKPGASVKVSCKVSGYTLTELSMQWVRQAPGKGLEWMGGFDPDDGETMYAEKFQGRLTVTEDTSTDTVYMELSSLRSEDTAVYFCATSPGYDFFDYWGQGTLVTVSS
VL: SYVLTQPPSVSVAPGKTARITCGGNNIGSKSVHWYQQKPGQAPVLVVYDDSDRPSGIPERFSGSNSGNTATLTISRVEAGDEADYYCQVWDSSNDLLIFGGGTKLTVLG
notes: as for B1
B7: anti-mutCALR antibody clone 78 (antibody, human IgG1, lambda, N297A, V domains shown)
VH: EVQLVQSGAEVKKPGASVKVSCKVSGYTLTELSMQWVRQAPGKGLEWMGGFDPDEGETMYAEKFQGRLTVTEDTSTDTVYMELRSLTSEDTALYFCATSPGYDFFDYWGQGTLVTVSS
VL: SYVLTQPPSVSVAPGKTARITCGGNNIGSKSVHWYQQKPGQAPVLVVYDDSDRPSGIPERFSGSNSGNTATLTISRVEAGDEADYYCQVWDSSNDLLIFGGGTKLTVLG
notes: as for B1
B8: anti-mutCALR antibody clone 77 (antibody, human IgG1, lambda, N297A, V domains shown)
VH: EVQLVQSGAEVKKPGASVKVSCKVSGYTLTELSMQWVRQAPGKGLEWMGGFDPDSGETMYAEKFQGRLTVTEDTSTDTVYMELRSLTSEDTALYFCATSPGYDFFDYWGQGTLVTVSS
VL: SYVLTQPPSVSVAPGKTARITCGGNNIGSKSVHWYQQKPGQAPVLVVYDDSDRPSGIPERFSGSNSGNTATLTISRVEAGDEADYYCQVWDSSNDLLIFGGGTKLTVLG
notes: as for B1

Each binder was assayed against T1, Recombinant MBP-mutCALR Type 1 fusion protein (human) (assay: SPR, IgG captured, 1:1 fit, Exp. 2).
T1 construct: custom made at Cepter; also called recombinant mutCALR protein
Method: Experiment 2: Recombinant MBP-mutCALR Type 1 fusion protein was custom made at Cepter (cepterbiopartners.com). Data for the interaction of antibodies with recombinant mutCALR protein were collected at 25° C. on a Biacore 8K instrument (Cytiva, Marlborough, Mass.), and all reagents were obtained from Cytiva unless otherwise specified. The experiments were conducted using Tris-buffered saline (pH 7.2), 0.005% Surfactant P20, 1 mM CaCl₂) as running buffer. To prepare the capture surfaces, anti-human IgG (Fc) antibodies (Product #29234600) was amine-coupled onto a CM4 chip (Product #BR100534) under standard conditions using an Amine Coupling Kit (Product #BR100050). […] The kinetics parameters were obtained by applying 1:1 binding model to fit the data from multiple-cycle injection experiments using Biacore Insight Evaluation software.

In order of falling Kd:
1. B4  6.62 nM
2. B3  6.23 nM
3. B8  5.61 nM
4. B5  4.9 nM
5. B7  2.75 nM
6. B2  1.39 nM
7. B6  0.638 nM
8. B1  0.637 nM

In order of falling koff:
1. B8  0.0175 s⁻¹
2. B5  0.0155 s⁻¹
3. B2  0.00631 s⁻¹
4. B4  0.00494 s⁻¹
5. B3  0.00475 s⁻¹
6. B1  0.0039 s⁻¹
7. B6  0.00248 s⁻¹
8. B7  0.0024 s⁻¹

In order of rising kon:
1. B4  746000 M⁻¹ s⁻¹
2. B3  762000 M⁻¹ s⁻¹
3. B7  873000 M⁻¹ s⁻¹
4. B8  3.13e+06 M⁻¹ s⁻¹
5. B5  3.16e+06 M⁻¹ s⁻¹
6. B2  4.53e+06 M⁻¹ s⁻¹
7. B1  6.12e+06 M⁻¹ s⁻¹

Reference: US20230272055A1 (Incyte, published 2023)
